From patent US9266930
Where two headings read alike, the source gives them in different places.

Columns and labels:
HLA-A*0201 (Human) [1] = molecular target: HLA-A*0201 (Human)
[2] = molecular target: HLA-DR2w2β1 (DRB1*1501) (human)
[3] = molecular target: HLA-DR2w2β2 (DRB5*0101) (human)
[4] = molecular target: HLA-DR5w11 (DRB1*1101) (human)
HLA-A*1101 (human) [5] = molecular target: HLA-A*1101 (human)
HLA-A*0301 (human) [6] = assay: competition with 125I-labeled probe peptide for purified HLA, gel filtration; conditions: scale: ratio
HLA-A*1101 (human) [7] = assay: as above; conditions: scale: ratio
HLA-A*3301 (human) [8] = assay: as above; conditions: scale: ratio
HLA-A*6801 (human) [9] = assay: as above; conditions: scale: ratio
[10] = molecular target: HLA-A*1101 (purified HLA class I molecule) (human)
[11] = molecular target: HLA-DR3 (DRB1*0301) (human); assay: competition with 125I-labeled probe peptide on purified HLA-DR, gel filtration
HLA-A*0206 (human) = assay: competition with 125I probe peptide for purified HLA, gel filtration
[12] = molecular target: HLA-DR1 (DRB1*0101) (human)
[13] = molecular target: HLA-DR3 (DRB1*0301) (human)
[14] = molecular target: HLA-DR4w15 (DRB1*0405) (human)
[15] = molecular target: HLA-DR4w4 (DRB1*0401) (human)
HLA-A*0201 (human) [16] = assay: competition with 125I probe peptide for purified HLA, gel filtration
HLA-A*0203 (human) = assay: as above
[17] = molecular target: T1, HLA-DR5w12 (DRB1*1201) (human)
T1 chain 1: not shown
T1 chain 2: not shown

[18] = molecular target: T2, HLA-DR6w19 (DRB1*1302) (human)
T2 chain 1: not shown
T2 chain 2: not shown

[19] = molecular target: T3, HLA-DR7 (DRB1*0701) (human)
T3 chain 1: not shown
T3 chain 2: not shown

[20] = molecular target: T4, HLA-DR8w2 (DRB1*0802) (human)
T4 chain 1: not shown
T4 chain 2: not shown

[21] = molecular target: T5, HLA-DR9 (DRB1*0901) (human)
T5 chain 1: not shown
T5 chain 2: not shown

HLA-A*0201 (human) [22] = molecular target: HLA-A*0201 (human)
HLA-A*1101 (human) [23] = molecular target: HLA-A*1101 (human); remark: listed apart in the source
HLA-A*0301 (human) [24] = assay: competition with 125I-labelled standard peptide for purified HLA, gel filtration
HLA-A*1101 (human) [25] = assay: as above
HLA-A*6801 (human) [26] = assay: as above
[27] = molecular target: T6, HLA-DR1 (DRB1*0101) (human)
T6 chain 1: not shown
T6 chain 2: not shown

[28] = molecular target: T7, HLA-DR2w2β1 (DRB1*1501) (human)
T7 chain 1: not shown
T7 chain 2: not shown

[29] = molecular target: T8, HLA-DR2w2β2 (DRB5*0101) (human)
T8 chain 1: not shown
T8 chain 2: not shown

[30] = molecular target: T9, HLA-DR4w15 (DRB1*0405) (human)
T9 chain 1: not shown
T9 chain 2: not shown

[31] = molecular target: T10, HLA-DR5w11 (DRB1*1101) (human)
T10 chain 1: not shown
T10 chain 2: not shown

[32] = molecular target: T6, HLA-DR1 (DRB1*0101) (human); assay: inhibition of 125I-probe peptide binding to purified HLA-DR, gel filtration
[33] = molecular target: T8, HLA-DR2w2β2 (DRB5*0101) (human); assay: as above
[34] = molecular target: T9, HLA-DR4w15 (DRB1*0405) (human); assay: as above
[35] = molecular target: T11, HLA-DR4w4 (DRB1*0401) (human); assay: as above
T11 chain 1: not shown
T11 chain 2: not shown

[36] = molecular target: T10, HLA-DR5w11 (DRB1*1101) (human); assay: as above
HLA-A*3301 (human) [37] = assay: competition with 125I-labelled standard peptide for purified HLA, gel filtration
[38] = molecular target: T1, HLA-DR5w12 (DRB1*1201) (human)

B1: … (EXP position 75, 10 amino acids) (peptide)
peptide: KLATSVLAGL
modifications: not checked
binding affinity ratio (IC50 of standard peptide / IC50 of test peptide) (HLA-A*0201 (Human) [1]): 0.0047

B2: … (peptide)
peptide: ANQLVVILTDGIPDS
modifications: not checked
binding affinity ratio (IC50 of standard peptide / IC50 of test peptide) [2]: 0.0008
binding affinity ratio (IC50 of standard peptide / IC50 of test peptide) [3]: -0.0005
binding affinity ratio (IC50 of standard peptide / IC50 of test peptide) [4]: -0.0002

B3: Pf EXP peptide … (position 9) (peptide)
peptide: LALFFIIFNK
modifications: not checked
binding affinity ratio (relative to standard peptide) (HLA-A*1101 (human) [5]): 0.053

B4: … (P. falciparum EXP, position 33, 9 amino acids) (peptide)
peptide: VSSKKKNKK
modifications: not checked
binding affinity ratio (relative to standard peptide) (HLA-A*0301 (human) [6]): 0.0001
binding affinity ratio (relative to standard peptide) (HLA-A*1101 (human) [7]): 0.0002
binding affinity ratio (relative to standard peptide) (HLA-A*3301 (human) [8]): 0.001
binding affinity ratio (relative to standard peptide) (HLA-A*6801 (human) [9]): 0.0002

B5: … (Pf SSP2 105, 9-mer) (peptide)
peptide: SDASKNKEK
modifications: not checked
binding affinity ratio (IC50 of standard peptide / IC50 of test peptide) [10]: 0.0002

B6: … (peptide)
peptide: VEALFQEYQCYGSSS
modifications: not checked
binding affinity ratio (IC50 standard peptide / IC50 test peptide) [11]: 0.0082

B7: 1167.13 (peptide)
peptide: KILSVFFLA
modifications: not checked
IC50 (HLA-A*0206 (human)): 8 nM

B8: … (peptide)
peptide: IGPFMKAVCVEVEKT
modifications: not checked
binding affinity ratio (IC50 of standard peptide / IC50 of test peptide) [12]: 0.0072
binding affinity ratio (IC50 of standard peptide / IC50 of test peptide) [2]: 0.0003
binding affinity ratio (IC50 of standard peptide / IC50 of test peptide) [13]: -0.0008
binding affinity ratio (IC50 of standard peptide / IC50 of test peptide) [14]: 0.0086
binding affinity ratio (IC50 of standard peptide / IC50 of test peptide) [15]: -0.0006
binding affinity ratio (IC50 of standard peptide / IC50 of test peptide) [4]: -0.0004

B9: … (P. falciparum EXP, position 32, 10 amino acids) (peptide)
peptide: GVSSKKKNKK
modifications: not checked
binding affinity ratio (relative to standard peptide) (HLA-A*0301 (human) [6]): 0.0011
binding affinity ratio (relative to standard peptide) (HLA-A*1101 (human) [7]): 0.0002

B10: … (Pf SSP2 254, 9-mer) (peptide)
peptide: SVTCGKGTR
modifications: not checked
binding affinity ratio (IC50 of standard peptide / IC50 of test peptide) [10]: 0.0009

B11: … (Pf SSP2 406) (peptide)
peptide: NLPNDKSDR
modifications: not checked
binding affinity ratio (IC50 of standard peptide / IC50 of test peptide) (HLA-A*1101 (human) [5]): 0.0002

B12: … (Pf SSP2 position 216) (peptide)
peptide: ADSAWENVK
modifications: not checked
binding affinity ratio (IC50 of standard peptide / IC50 of test peptide) (HLA-A*1101 (human) [5]): 0.0009

B13: 1167.16 (peptide)
peptide: FMKAVCVEV
modifications: not checked
IC50 (HLA-A*0201 (human) [16]): 63 nM
IC50 (HLA-A*0203 (human)): 2.9 nM
IC50 (HLA-A*0206 (human)): 389 nM

B14: … (Pf EXP 3) (peptide)
peptide: ILSVFFLALFFIIFN
modifications: not checked
binding affinity ratio (IC50 of standard peptide / IC50 of test peptide) [17]: 0.0008
binding affinity ratio (IC50 of standard peptide / IC50 of test peptide) [18]: 0.0005
binding affinity ratio (IC50 of standard peptide / IC50 of test peptide) [19]: 0.011
binding affinity ratio (IC50 of standard peptide / IC50 of test peptide) [20]: 0.0031
binding affinity ratio (IC50 of standard peptide / IC50 of test peptide) [21]: -0.0003

B15: … (P. falciparum CSP, position 323, 10 amino acids) (peptide)
peptide: NMPNDPNRNV
modifications: not checked
binding affinity ratio (IC50 of standard peptide / IC50 of test peptide) (HLA-A*0201 (human) [22]): 0.0007

B16: … (Pf SSP2 256, 10-mer) (peptide)
peptide: TCGKGTRSRK
modifications: not checked
binding affinity ratio (IC50 of standard peptide / IC50 of test peptide) [10]: 0.0002

B17: 1167.08 (peptide)
peptide: GLIMVLSFL
modifications: not checked
IC50 (HLA-A*0201 (human) [16]): 22 nM

B18: … (peptide)
peptide: FIIFNKESLAEKTNK
modifications: not checked
binding affinity ratio (IC50 standard peptide / IC50 test peptide) [11]: 0.004

B19: … (P. falciparum EXP-1, position 28) (peptide)
peptide: GTGSGVSSKK
modifications: not checked
binding affinity ratio (IC50 of standard peptide / IC50 of test peptide) (HLA-A*1101 (human) [23]): 0.034

B20: … (peptide)
peptide: QVRKHLNDR
modifications: not checked
binding affinity ratio (IC50 of standard peptide / IC50 of test peptide) (HLA-A*0301 (human) [24]): 0.0005
binding affinity ratio (IC50 of standard peptide / IC50 of test peptide) (HLA-A*1101 (human) [25]): 0.0002
binding affinity ratio (IC50 of standard peptide / IC50 of test peptide) (HLA-A*6801 (human) [26]): 0.0002

B21: … (Pf EXP 88) (peptide)
peptide: VSTVLLGGVGLVLYN
modifications: not checked
binding affinity ratio (IC50 of standard peptide / IC50 of test peptide) [17]: 0.0011
binding affinity ratio (IC50 of standard peptide / IC50 of test peptide) [18]: 0.0002
binding affinity ratio (IC50 of standard peptide / IC50 of test peptide) [19]: 0.002
binding affinity ratio (IC50 of standard peptide / IC50 of test peptide) [20]: -0.0002
binding affinity ratio (IC50 of standard peptide / IC50 of test peptide) [21]: 0.012

B22: … (EXP position 3, 9 amino acids) (peptide)
peptide: ILSVFFLAL
modifications: not checked
binding affinity ratio (IC50 of standard peptide / IC50 of test peptide) (HLA-A*0201 (Human) [1]): 0.0058

B23: … (P. falciparum CSP, position 415, 10 amino acids) (peptide)
peptide: SVFNVVNSSI
modifications: not checked
binding affinity ratio (IC50 of standard peptide / IC50 of test peptide) (HLA-A*0201 (human) [22]): 0.0005

B24: … (P. falciparum CSP 15-mer, core …) (peptide)
peptide: NSSIGLIMVLSFLFL
modifications: not checked
binding affinity ratio (relative binding) (ratio to standard peptide) [27]: 0.004
binding affinity ratio (relative binding) (ratio to standard peptide) [28]: 0.025
binding affinity ratio (relative binding) (ratio to standard peptide) [29]: 0.0024
binding affinity ratio (relative binding) (ratio to standard peptide) [30]: 0.0035
binding affinity ratio (relative binding) (ratio to standard peptide) [31]: -0.0005

B25: … (P. falciparum CSP 15-mer, core …) (peptide)
peptide: EALFQEYQCYGSSSN
modifications: not checked
binding affinity ratio (relative binding) (ratio to standard peptide) [32]: 0.0001
binding affinity ratio (relative binding) (ratio to standard peptide) [33]: -0.0005
binding affinity ratio (relative binding) (ratio to standard peptide) [34]: -0.0009
binding affinity ratio (relative binding) (ratio to standard peptide) [35]: 0.0053
binding affinity ratio (relative binding) (ratio to standard peptide) [36]: -0.0002

B26: … (Pf EXP 6) (peptide)
peptide: VFFLALFFIIFNKES
modifications: not checked
binding affinity ratio (IC50 of standard peptide / IC50 of test peptide) [17]: 0.0002
binding affinity ratio (IC50 of standard peptide / IC50 of test peptide) [18]: -0.0002
binding affinity ratio (IC50 of standard peptide / IC50 of test peptide) [19]: 0.0056
binding affinity ratio (IC50 of standard peptide / IC50 of test peptide) [20]: -0.0007
binding affinity ratio (IC50 of standard peptide / IC50 of test peptide) [21]: -0.0018

B27: … (peptide)
peptide: PSPNPEEGK
modifications: not checked
binding affinity ratio (IC50 of standard peptide / IC50 of test peptide) (HLA-A*0301 (human) [24]): 0.0005
binding affinity ratio (IC50 of standard peptide / IC50 of test peptide) (HLA-A*1101 (human) [25]): 0.0002
binding affinity ratio (IC50 of standard peptide / IC50 of test peptide) (HLA-A*3301 (human) [37]): 0.001
binding affinity ratio (IC50 of standard peptide / IC50 of test peptide) (HLA-A*6801 (human) [26]): 0.0002

B28: … (Pf CSP DR-supermotif 15-mer, core …) (peptide)
peptide: EALFQEYQCYGSSSN
modifications: not checked
binding affinity ratio (relative to standard peptide) [38]: 0.0001

B29: … (peptide)
peptide: VSTVLLGGVGLVLYN
modifications: not checked
binding affinity ratio (IC50 of standard peptide / IC50 of test peptide) [2]: 0.008
binding affinity ratio (IC50 of standard peptide / IC50 of test peptide) [3]: 0.0005
binding affinity ratio (IC50 of standard peptide / IC50 of test peptide) [13]: -0.0008
binding affinity ratio (IC50 of standard peptide / IC50 of test peptide) [14]: -0.0009
binding affinity ratio (IC50 of standard peptide / IC50 of test peptide) [4]: 0.0003

B30: … (P. falciparum EXP, position 32, 9 amino acids) (peptide)
peptide: GVSSKKKNK
modifications: not checked
binding affinity ratio (relative to standard peptide) (HLA-A*0301 (human) [6]): 0.0001
binding affinity ratio (relative to standard peptide) (HLA-A*1101 (human) [7]): 0.0002

B31: … (P. falciparum CSP, position 375, 9 amino acids) (peptide)
peptide: VTCGNGIQV
modifications: not checked
binding affinity ratio (IC50 of standard peptide / IC50 of test peptide) (HLA-A*0201 (human) [22]): 0.0011
